# Measurements: patent US20230303690A1 (published 2023)
# Numbering of substitutions follows the chain as printed. Where two headings read alike, the source gives them in different places.
# B1: sdAb No. 25-B7 (VHH)
# VHH: QLQLVESGGGLVKPGGSLRLSCAASGSIESFSFMGWYRQAPGKQRELVAGFTGAASLSFSTYTDAVKGRFTISRDNAKNSVYLQMNSLRAEDTAVYFCNVDPWSQSWPGRYWGQGTTVTVSS
# notes: Humanized sdAb No. 25; not shown: Fc part implied by anti-human IgG Fc detection
# B2: sdAb No. 25-B5 (VHH)
# VHH: B1 VHH with L2V, L47W, V81L, F97Y
# notes: Humanized sdAb No. 25; not shown: Fc part implied by anti-human IgG1 Fc detection
# B3: sdAb No. 27-H1 (VHH)
# VHH: QVQLVESGGGLVQPGGSLRLSCAASGFTLDYYAIGWFRQAPGKEREGVSCIRSSDASTYYADSVKGRFTISSDNTKNTVYLQMNSLKPEDTAVYYCATDRYSDCRGPYENWGQGTQVTVSS
# notes: Modified sdAb No. 27 (CDR2 DG to DA); not shown: Fc part implied by anti-human IgG1 Fc detection
# B4: sdAb No. 27-H1B3 (VHH)
# VHH: B3 VHH with T75S, K87R, P88A, Q116M
# notes: Humanized sdAb No. 27-H1; not shown: Fc part implied by anti-human IgG Fc detection
# B5: sdAb No. 27-H2 (VHH)
# VHH: B3 VHH with D55E, A56G
# notes: Modified sdAb No. 27 (CDR2 DG to EG); not shown: Fc part implied by anti-human IgG1 Fc detection
# B6: sdAb No. 17-H5 (VHH)
# VHH: QLQLVESGGGLVQPGGSLRLSCAASGLTLDAYAIGWFRQAPGKEREGLACISGSDASTHYLDSVKGRFTISRDNGKNTMALQMNSLQFGDTAIYYCAARRGSCSGSWTYWGQGTQVTVSS
# notes: Modified sdAb No. 17 (CDR1 and CDR2 DG to DA); not shown: Fc part implied by anti-human IgG1 Fc detection
# B7: sdAb No. 8 (VHH)
# VHH: QLQLVESGGGLVQPGGSLRLSCAASGFTLDYYAIGWFRQAPGKEREGVSCISSSDGSTYYADSVKGRFTISRDNAKNTVYLQMNSLKPEDTAIYYCARDSLSGSGYGCRGPYDYWGQGTQVTVSS
# notes: Fc of the tested form not described; not shown: Fc part implied by anti-human Fc capture
# Tests used:
# [1] = target: T1, LAG3 Protein, Human, Recombinant (His Tag) (Sino Biological Catalog No. 16498-H08H) (human, UniProt P18627 23-450); experiment: ELISA, coated hLAG3-His
# T1 construct: Bought protein; also called hLAG3-His; LAG3-His; not shown: His tag
# T1 sequence (looked up): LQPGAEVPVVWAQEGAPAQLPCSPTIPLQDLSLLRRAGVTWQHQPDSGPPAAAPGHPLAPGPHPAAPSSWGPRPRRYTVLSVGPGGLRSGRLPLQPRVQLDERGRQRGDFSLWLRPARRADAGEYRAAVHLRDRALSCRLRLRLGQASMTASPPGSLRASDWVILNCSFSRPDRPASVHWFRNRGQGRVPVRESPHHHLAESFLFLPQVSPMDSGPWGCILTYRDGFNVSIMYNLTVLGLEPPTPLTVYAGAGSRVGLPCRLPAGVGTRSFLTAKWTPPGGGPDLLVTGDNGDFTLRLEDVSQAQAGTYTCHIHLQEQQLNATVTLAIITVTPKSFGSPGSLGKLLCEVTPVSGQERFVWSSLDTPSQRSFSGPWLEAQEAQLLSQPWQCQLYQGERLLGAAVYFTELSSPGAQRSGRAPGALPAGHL
# Procedure: (§1) Plates were coated with 100 µL per well of Coating Solution, and then covered, and incubated overnight (12-18 hours) at 2-8° C. The wells were aspirated and washed 1 time with >200 µL of Wash buffer per well, inverted and tapped on absorbent paper to remove excess liquid. The plates were blocked with 200 µL per well with Blocking buffer (1×PBS+4% milk) for 1 hour at room temperature, aspirated, inverted, and tapped on absorbent paper to remove excess liquid. Standards and sample dilutions were prepared in Blocking buffer. 100 µL of standards (in duplicate) and samples were pipetted into designated wells. After incubation for 1 hour at room temperature with gentle continual shaking (~500 rpm), the wells were aspirate and washed 3 times with >200 µL of Wash buffer per well, inverted and tapped on absorbent paper to remove excess liquid.
# (§2) The primary antibody solution was diluted with Blocking buffer. See Table 14 for recommended primary antibody dilution. 100 µL of the primary antibody solution was added into each well and incubated for 2 hours at room temperature with gentle continual shaking (~500 rpm). The wells were aspirated and washed 3 times with >200 µL of Wash buffer per well, inverted and tapped on absorbent paper to remove excess liquid. The working solution of secondary antibody was made with Blocking buffer by diluting the secondary antibody by 2,500 times. 100 µL of secondary antibody working solution was added into each well and incubated for 30 minutes at room temperature. The wells were aspirated and washed 5 times with >200 µL of Wash buffer per well, inverted and tapped on absorbent paper to remove excess liquid. 100 µL of TMB substrate solution (Biopanda, TMB-S-004) was added to each well and incubated for 30 minutes at room temperature. 100 µL of Stop solution (Solarbio, C1058) was added to each well. Absorbance at 450 nm was measured within 30 minutes of adding Stop solution. Results were calculated using a log-log or 4-parameter curve fit.
# [2] = target: T2, human LAG3 expressed on cells (human, UniProt P18627 23-525); experiment: FACS, 293T-hLAG3 cells
# T2 construct: whole, on cells
# T2 sequence (looked up): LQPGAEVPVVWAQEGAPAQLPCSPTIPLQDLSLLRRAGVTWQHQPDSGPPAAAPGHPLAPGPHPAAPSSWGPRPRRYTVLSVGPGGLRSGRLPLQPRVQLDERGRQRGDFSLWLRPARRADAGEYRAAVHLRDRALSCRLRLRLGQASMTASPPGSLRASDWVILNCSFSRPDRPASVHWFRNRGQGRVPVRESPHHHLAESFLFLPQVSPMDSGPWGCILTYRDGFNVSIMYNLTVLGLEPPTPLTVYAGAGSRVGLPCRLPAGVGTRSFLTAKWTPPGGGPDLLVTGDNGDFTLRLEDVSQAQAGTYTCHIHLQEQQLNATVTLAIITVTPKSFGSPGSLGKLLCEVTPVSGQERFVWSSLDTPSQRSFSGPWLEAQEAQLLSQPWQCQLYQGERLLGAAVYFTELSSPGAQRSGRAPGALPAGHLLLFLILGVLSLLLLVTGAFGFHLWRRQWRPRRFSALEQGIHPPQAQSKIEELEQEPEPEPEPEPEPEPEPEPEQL
# Procedure: 5) The prepared antibody samples were added to the 96-well plate according to the platemap, the cells were resuspended and incubate at 4° C. for 1 hour.
# 7) 3% BSA/1xPBS was used to dilute Goat polyclonal Secondary Antibody to Human IgG-Fc (DyLight® 650) to the desired concentration (1:200), in which the cells were resuspended and incubated at 4° C. for 1 hour.
# 9) The cells were resuspended in 200 µl of 3% BSA/1xPBS, and performed flow cytometric testing by Shsti Biotech Inc.
# [3] = target: human LAG3 expressed on cells (human) (UniProt P18627); experiment: cell ELISA, 293T-LAG3 cells
# [4] = target: T2, human LAG3 expressed on cells; experiment: cell ELISA, 293T-hLAG3 cells
# Procedure: Each well was treated with stimulants. The cells were then fixed and blocked with Blocking buffer. The Primary antibodies were added. The wells were washed and a HRP-conjugated secondary antibody was added. The wells were washed with 1x PBS and a solution containing TMB (Biopanda, TMB-S-004) was added. The TMB reacted with HRP to change the color thereof from colorless to blue. An acid stop solution (Solarbio, C1058) was then added to stop the reaction and change the blue color to yellow.
# Materials are listed below: [0072] […] 2) Blocking buffer: 1×PBS+3% BSA (Sigma, B2064); [0074] […] [0075] 4) Secondary antibody: Goat anti-human IgG1 Fc antibody, HRP (1:2500, invitrogen, A18817). [0076]
# [5] = target: T1, LAG3 Protein, Human, Recombinant (His …); experiment: ELISA, coated hLAG3-His; remark: listed apart in the source
# Procedure: as §1
# as §2, with “well.” for “well. Absorbance at 450 nm was measured within 30 minutes of adding Stop solution. Results were calculated using a log-log or 4-parameter curve fit.”
# [6] = target: T1, LAG3 Protein, Human, Recombinant (His …); experiment: SPR (Biacore), sdAb captured by anti-human Fc, LAG3-His analyte
# Procedure: The binding of the single domain antibodies to recombinant human LAG3 protein (rhLAG3) was examined by Biacore™ assay. […] The coating was carried out according to the manufacturer’s instructions accompanying the kit (Catalog No. BR-1008-39, GE). […] The chip surface was regenerated after each cycle with 25 mM NaOH followed by HBS-EP wash provided in the kit.
binder,measurement,setting,value
B1,EC50,[1],2 nM
same,OD450 at 0.061 nM,[1],0.038
same,OD450 at 0.1829 nM,[1],0.057
same,OD450 at 0.5487 nM,[1],0.132
same,OD450 at 1.6461 nM,[1],0.648
same,OD450 at 4.9383 nM,[1],1.25
same,OD450 at 14.815 nM,[1],1.41
same,OD450 at 44.445 nM,[1],1.33
same,OD450 at 133.335 nM,[1],1.66
same,EC50,[2],0.6 nM
same,FACS signal at 0.061 nM,[2],191
same,FACS signal at 0.1829 nM,[2],487
same,FACS signal at 0.5487 nM,[2],1110
same,FACS signal at 1.6461 nM,[2],1690
same,FACS signal at 4.9383 nM,[2],2030
same,FACS signal at 14.815 nM,[2],2210
same,FACS signal at 44.445 nM,[2],2480
same,FACS signal at 133.335 nM,[2],2380
B2,OD450 at 0.122 nM,[3],0.086
same,OD450 at 0.366 nM,[3],0.113
same,OD450 at 1.097 nM,[3],0.124
same,OD450 at 3.292 nM,[3],0.196
same,OD450 at 9.877 nM,[3],0.21
same,OD450 at 29.63 nM,[3],0.254
same,OD450 at 88.89 nM,[3],0.311
same,OD450 at 266.67 nM,[3],0.608
same,EC50,[1],452 nM
same,OD450 at 0.061 nM,[1],0.036
same,OD450 at 0.1829 nM,[1],0.04
same,OD450 at 0.5487 nM,[1],0.038
same,OD450 at 1.6461 nM,[1],0.048
same,OD450 at 4.9383 nM,[1],0.062
same,OD450 at 14.815 nM,[1],0.084
same,OD450 at 44.445 nM,[1],0.114
same,OD450 at 133.335 nM,[1],0.163
B3,EC50,[4],1.4 nM
same,OD450 at 0.0045725 ug/ml,[4],0.076
same,OD450 at 0.0137174 ug/ml,[4],0.171
same,OD450 at 0.0411523 ug/ml,[4],0.359
same,OD450 at 0.1234568 ug/ml,[4],0.719
same,OD450 at 0.3703704 ug/ml,[4],1.08
same,OD450 at 1.111111 ug/ml,[4],1.17
same,OD450 at 3.333333 ug/ml,[4],1.24
same,OD450 at 10 ug/ml,[4],1.33
same,EC50,[5],3.28 nM
same,OD450 at 0.004572 ug/ml,[5],0.04
same,OD450 at 0.013717 ug/ml,[5],0.043
same,OD450 at 0.041152 ug/ml,[5],0.063
same,OD450 at 0.123457 ug/ml,[5],0.36
same,OD450 at 0.37037 ug/ml,[5],1.42
same,OD450 at 1.111111 ug/ml,[5],1.8
same,OD450 at 3.333333 ug/ml,[5],2
same,OD450 at 10 ug/ml,[5],1.95
B4,EC50,[1],2.08 nM
same,OD450 at 0.061 nM,[1],0.038
same,OD450 at 0.1829 nM,[1],0.057
same,OD450 at 0.5487 nM,[1],0.212
same,OD450 at 1.6461 nM,[1],1.15
same,OD450 at 4.9383 nM,[1],2.53
same,OD450 at 14.815 nM,[1],2.88
same,OD450 at 44.445 nM,[1],2.91
same,OD450 at 133.335 nM,[1],2.99
same,EC50,[2],1.18 nM
same,FACS signal at 0.061 nM,[2],234
same,FACS signal at 0.1829 nM,[2],585
same,FACS signal at 0.5487 nM,[2],1420
same,FACS signal at 1.6461 nM,[2],2810
same,FACS signal at 4.9383 nM,[2],3820
same,FACS signal at 14.815 nM,[2],4360
same,FACS signal at 44.445 nM,[2],4620
same,FACS signal at 133.335 nM,[2],4630
B5,EC50,[4],1.55 nM
same,OD450 at 0.0045725 ug/ml,[4],0.075
same,OD450 at 0.0137174 ug/ml,[4],0.152
same,OD450 at 0.0411523 ug/ml,[4],0.314
same,OD450 at 0.1234568 ug/ml,[4],0.626
same,OD450 at 0.3703704 ug/ml,[4],1.07
same,OD450 at 1.111111 ug/ml,[4],1.16
same,OD450 at 3.333333 ug/ml,[4],1.14
same,OD450 at 10 ug/ml,[4],1.2
same,EC50,[5],3.73 nM
same,OD450 at 0.004572 ug/ml,[5],0.038
same,OD450 at 0.013717 ug/ml,[5],0.043
same,OD450 at 0.041152 ug/ml,[5],0.063
same,OD450 at 0.123457 ug/ml,[5],0.334
same,OD450 at 0.37037 ug/ml,[5],1.43
same,OD450 at 1.111111 ug/ml,[5],1.96
same,OD450 at 3.333333 ug/ml,[5],2.08
same,OD450 at 10 ug/ml,[5],2.27
B6,EC50,[5],1.19 nM
B7,Kd,[6],0.347 nM
same,koff,[6],0.000277 s⁻¹
same,kon,[6],797000 M⁻¹ s⁻¹
